In patent US20260207715A1, “KIT FOR COMBINATION THERAPY OF TUMOR DISEASES AND/OR INFECTIONS” (priority 2022, published 2026):
“Also recorded” adds a separate entry of the source.

B1: APIT: FAD-binding L-amino acid oxidase from Aplysia punctata, SEQ ID NO. 1 (protein, listed as Aplysia punctata)
chain: MDGVSRNRRQCNREVCGSTYDVAVVGAGPGGANSAYMLRDSGLDIAVFEYSDRVGGRLFTYQLPNTPDVNLEIGGMRFIEGAMHRLWRVISELGLTPKVFKEGFGKEGRQRFYLRGQSLTKKQVKSGDVPYDLSPEEKENQGNLVEYYLEKLTGLQLNGEPLKREVALKLTVPDGRFLYDLSFDEAMDLVASPEGKEFTRDTHVFTGEVTLDASAVSLFDDHLGEDYYGSEIYTLKEGLSSVPQGLLQAFLDAADSNEFYPNSHLKALRRKTNGQYVLYFEPTTSKDGQTTINYLEPLQVVCAQRVILAMPVYALNQLDWNQLRNDRATQAYAAVRPIPASKVFMTFDQPWWLENERKSWVTKSDALFSQMYDWQKSEASGDYILIASYADGLKAQYLRELKNQGEDIPGSDPGYNQVTEPLKDTILDHLTEAYGVERDSIPEPVTAASQFWTDYPFGCGWITWRAGFHFDDVISTMRRPSLKDEVYVVGADYSWGLISSWIEGALETSENVINDYFL
modifications: FAD cofactor

Assays:
ROS (H2O2) production = test: Enzymatic activity, production of ROS (H2O2), spectrofluorimetric experimental setup; format: biochemical; conditions: for enzymatically active: fusion protein; for enzymatic activity, production of ROS (H2O2): spectrofluorimetric experimental setup
Description: The proteins APIT, the fusion protein zHER2:342-APIT and zHER2:342(K4R/K7A/K27R/K49R/K50A/K58A)-APIT were successfully recombinantly produced and purified. The proteins were verified for identity and purity by mass spectrometry and high-performance liquid chromatography (HPLC) (see FIGS. 3 and 4). Subsequently, both proteins were compared with respect to their enzymatic activity, in particular the production of ROS (H2O2) via a spectrofluorimetric experimental setup. The activity of both species is very similar: • APIT: 80 U/mg, • zHER2:342-APIT: 70 U/mg, • zHER2:342(K4R/K7A/K27R/K49R/K50A/K58A)-APIT: 70 U/mg.

[1] = target: T1, HER2 receptor on HER2-positive cells (BT474 cell line) (Homo sapiens, UniProt P04626); test: Cell-based HER-2 binding assay on fixed HER2-positive cells; conditions: fluorescent dye labeled protein
T1 construct: host or cells: BT-474 (HER2-positive breast cancer cell line), fixed with 4% paraformaldehyde
Description: (§1) Shown are results of cell culture experiments to confirm the selective HER2 binding of the fusion proteins. The fusion proteins zHER2:342-APIT and zHER2:342(K4R/K7A/K27R/K49R/K50A/K58A)-APIT were labeled with fluorescent dye and probed for HER2 binding on fixed cells. Cell nuclei were stained with Hoechst33342.
Left panels: HER2-positive cells (BT474 cell line). Here, the fluorescent dye labeled fusion proteins bind to the HER2 receptor located on the cell membrane.
(§2) HER2 positive BT-474 (ACC 64), adherent cells were cultured in RPMI 1640 containing 20% (v/v) FBS, MEM non-essential amino acids, 1 mM Pyruvate, 10 μg/ml human insulin. HER2-negative MDA-MB-231 (ACC 732) adherent cells were cultured in Leibowitz' L15, 20% FBS. Cells were cultured from frozen stocks and passaged two times prior to the assay. Cells were incubated at 37° C., 5% CO2 humidified. At a confluency of 80% cell passaging was performed by trypsination using 0.25% (w/v) trypsin/0.2% (w/v) EDTA. Cells were seeded at 10 k cells/well on sterilized degreased 4%-gelatin coated cover slides ([…]) in 24-well plates and grown over night in the incubator. Cells were washed with PBS and fixated with freshly made 4% (w/v) paraformaldehyde solution for 30 min. […] Fluorescence signal was imaged using a ZEISS motorized Axio ZI observer fluorescence microscope. Images were analyzed and processed using Zeiss Zen Pro software.

[2] = test system: HER2-negative cells (MDA-MB-231); test: Cell-based HER-2 binding assay on fixed HER2-negative cells (negative control); conditions: MDA-MB-231, fixed cells, fluorescent dye labeled protein
Procedure: as §1
Right panels: HER2-negative cells (MDA-MB-231).
as §2

HER2-positive tumor = test: Tumor targeting and biodistribution in mice with HER2-positive and HER2-negative tumor; format: in vivo; conditions: six hours after exposure, NIR-labelled protein
Procedure: Tumor targeting and biodistribution of (A) zHER2-APIT-NIR and (B) APIT-NIR in mice with HER2-negative tumor (black) and HER2-positive tumor (gray); (whiskers indicate 10-90% percentile values, line in the box is the median; significance was tested with the Mann-Whitney U test, *p<0.05 was considered statistically different; n.s.=not significant; n=6).
Labelling of 1 eq protein was performed with either 6 eq of AlexaFluor680™-maleimide (NIR) or 10 eq of TexasRed-maleimide in PBS containing 50 mM TCEP pH 7.4 at a protein concentration of 1.0 mg/mL overnight. Reaction mixture was purified via HiTrap Q HP using 50 mM Tris pH 8.0 (A) and 50 mM Tris 1 M NaCl pH 8.0 (B) with following method: 30% B for 45 CV, 30-100% B in 30 CV. The eluent was dialyzed in PBS. The degree of label (DOL) was determined according to the manufacturer's instructions using extinctions coefficient of 1.539 mLmg-1 cm-1 for APIT.

NIH3T3 cells spheroids = test: Spheroid formation of NIH3T3 cells, propidium iodide staining; format: cell-based, murine; conditions: 24 hours
Procedure: In this example, immortalized murine fibroblast NIH3T3 cells were specifically chosen for generating spheroids due to their ability to produce a consistently uniform, rounded, and tightly cohesive structure. […] To achieve this, NIH3T3 cells (150,000 cells/mL) were seeded on non-tissue culture treated petri dish coverslips in 10 μL drops. Subsequently, they were treated with camptothecin and compound 4, the latter being activated both with and without H2O2, and were incubated upside down for 24 hours at 37° C. under 5% CO2. Following the incubation period, the spheroids were stained with propidium iodide (0.003 μg per 10,000 cells) for 3 minutes at room temperature. The analysis of these spheroids was conducted using an Axio Observer.Z1 microscope equipped with an A-Plan 10×/0.25 Ph1 objective (Zeiss). The images were recorded with a phase-contrast channel, and a 43 DsRed Reflector (λex=538-562 nm λem=570-640 nm) with a mercury vapor short-arc lamp.

Molecule	enzymatically active (ROS (H2O2) production)	enzymatic activity, production of ROS (H2O2) (ROS (H2O2) production)	binding to HER2-positive cells [1]	binding to HER2-negative cells [2]	levels in HER2-positive xenografts compared to HER2-negative tissues (HER2-positive tumor)	effect on spheroids (NIH3T3 cells spheroids)
zHER2:342(K4R/K7A/K27R/K49R/K50A/K58A)-APIT: fusion protein of lysine-deleted zHER2:342 mutant and APIT, SEQ ID NO. 5	enzymatically active	70 U/mg	bind to HER2 positive; also recorded: confirmed	not HER2 negative cells		
zHER2:342-APIT: fusion protein of targeting sequence zHER2:342 and APIT, SEQ ID NO. 4	remain enzymatically active	70 U/mg	bind to HER2-positive; also recorded: confirmed	not HER2-negative cells		
zHER2-APIT: APIT fused with the zHER2 affibody, AlexaFluor680 (NIR) labelled for biodistribution					Significantly higher levels	
CC[C@@]1(O)C(=O)OCc2c1cc1n(c2=O)Cc2cc3ccccc3nc2-1 [camptothecin]						disintegration of spheroids
B1		80 U/mg			did not show differences	
